# Laboratory results taken from US20240343781A1 (TRUSTEES OF COLUMBIA UNIVERSITY IN THE CITY OF NEW YORK, published 2024).
# B1: engineered monoclonal antibody 11-11 (antibody, V domains shown)
# VH: QVQLQESGPGLVKPSQTLSLTCTVSGGSISSGGYYWSWIRQHPGKGLEWIGYIYYSGSTYYNPSLKSRVTISVDTSKNQFSLKVSSVTAADTAVYYCASSNYYDGSGYNLLESYGMDVWGQGTSVTVSS
# VL: QSVLTQPPSVSGAPGQRVTISCTGSSSNIGAGYDVHWYQQLPGTAPKLLIYGNSNRPSGVPDRFSGSRSGTSASLAITGLQAEDEADYYCQSYDSSLSGSWVFGGGTKVTVL
# B2: engineered monoclonal antibody 10-40 (antibody, V domains shown)
# VH: QLQLQESGPGLVKPSETLSLTCTVSGGSISSSNFYWGWIRQPPGKGLEWIASITYSGRTFYNPSLKSRVAISVDTSKNQFSLKLSSVTAADTAVYYCARTFPSYYDRSGYHYLNYGMDVWGQGTTVTVSS
# VL: NFMLTQPHSMSESPGKTVTISCTRSSGSIASNYVQWYQQRPGSSPTTVIYEDNQRPSGVPDRFSGSIDSSSNSASLTISGLKTEDEADYYCQSYDSSSWVFGGGTKLTVL
# Target: SARS-COV spike on pseudovirus (SARS-CoV, UniProt P59594 14-1255)
# Experiment: cell-based or functional assay
row,Binder,"IC50, neutralization of pseudoviruses [µg/mL]"
1,B1,0.025
2,B2,0.019
